# B1: SABA1.2 (designed binder)
# chain: MGVSDVPRDLEVVAATPTSLLISWHSYYEQNSYYRITYGETGGNSPVQEFTVPYSQTTATISGLKPGVDYTITVYAVYGSKYYYPISINYRTEIEDEDEDEDED
# notes: It has no His tag; also called "core 1" 10Fn3 comprising an (ED)5 extension
# Columns and labels:
# [1] = biological target: T1, human serum albumin (human, UniProt P02768 25-609); assay: kinetic binding analysis in MES buffer, pH 7.4
# T1 construct: also called HSA
# [2] = biological target: T2, rhesus serum albumin (rhesus, UniProt Q28522 17-600); assay: kinetic binding analysis in MES buffer, pH 7.4
# T2 construct: also called RhSA
# T2 sequence (Q28522 17-600 limits assumed): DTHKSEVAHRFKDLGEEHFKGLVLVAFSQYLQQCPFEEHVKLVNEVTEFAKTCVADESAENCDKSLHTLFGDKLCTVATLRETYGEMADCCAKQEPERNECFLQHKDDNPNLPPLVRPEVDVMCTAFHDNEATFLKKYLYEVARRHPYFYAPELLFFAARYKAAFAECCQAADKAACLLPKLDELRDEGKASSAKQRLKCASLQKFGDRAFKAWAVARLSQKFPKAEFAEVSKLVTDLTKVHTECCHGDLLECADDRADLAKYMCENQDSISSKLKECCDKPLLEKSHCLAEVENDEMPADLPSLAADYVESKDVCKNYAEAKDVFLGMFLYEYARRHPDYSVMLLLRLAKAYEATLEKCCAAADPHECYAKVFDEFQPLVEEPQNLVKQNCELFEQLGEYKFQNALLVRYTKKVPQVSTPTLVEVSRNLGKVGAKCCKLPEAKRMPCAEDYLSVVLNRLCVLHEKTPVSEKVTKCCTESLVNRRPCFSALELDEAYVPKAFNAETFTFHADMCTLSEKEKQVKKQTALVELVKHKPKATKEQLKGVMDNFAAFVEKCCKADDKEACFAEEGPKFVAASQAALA
# [3] = biological target: T1, human serum albumin; assay: kinetic binding analysis in HBS-P buffer, 37 °C
# [4] = biological target: T2, rhesus serum albumin; assay: kinetic binding analysis in HBS-P buffer, 37 °C
# [5] = biological target: T1, human serum albumin; assay: kinetic binding analysis in HBS-P buffer, 25 °C
# [6] = biological target: T2, rhesus serum albumin; assay: kinetic binding analysis in HBS-P buffer, 25 °C
# [7] = biological target: T3, murine serum albumin (mouse, UniProt P07724 25-608); assay: kinetic binding analysis in HBS-P buffer, 25 °C
# T3 construct: also called MuSA; Mouse
# [8] = biological target: T1, human serum albumin; assay: kinetic binding analysis in MES buffer, pH 5.5
# [9] = biological target: T2, rhesus serum albumin; assay: kinetic binding analysis in MES buffer, pH 5.5
# T1 sequence (P02768 25-609 limits assumed): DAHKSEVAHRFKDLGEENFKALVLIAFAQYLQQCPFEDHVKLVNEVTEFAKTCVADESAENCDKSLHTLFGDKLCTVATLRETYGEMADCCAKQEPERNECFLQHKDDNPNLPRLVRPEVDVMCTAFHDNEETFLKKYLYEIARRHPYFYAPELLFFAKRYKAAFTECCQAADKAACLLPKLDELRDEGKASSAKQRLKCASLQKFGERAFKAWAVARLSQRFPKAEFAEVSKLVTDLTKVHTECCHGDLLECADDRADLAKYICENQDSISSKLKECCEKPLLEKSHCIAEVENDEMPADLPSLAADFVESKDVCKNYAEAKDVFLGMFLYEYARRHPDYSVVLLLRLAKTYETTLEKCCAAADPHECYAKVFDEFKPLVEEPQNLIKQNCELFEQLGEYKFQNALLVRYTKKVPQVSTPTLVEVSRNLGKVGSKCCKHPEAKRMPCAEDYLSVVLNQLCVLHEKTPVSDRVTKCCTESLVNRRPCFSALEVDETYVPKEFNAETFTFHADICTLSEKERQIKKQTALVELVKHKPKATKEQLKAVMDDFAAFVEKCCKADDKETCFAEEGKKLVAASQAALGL
binder,measurement,setting,value
B1,Kd,[1],41.9 nM
same,koff,[1],0.000388 s⁻¹
same,kon,[1],9260 M⁻¹ s⁻¹
same,Kd,[2],479 nM
same,koff,[2],0.00295 s⁻¹
same,kon,[2],6160 M⁻¹ s⁻¹
same,Kd,[3],24.1 nM
same,koff,[3],0.000815 s⁻¹
same,kon,[3],33800 M⁻¹ s⁻¹
same,Kd,[4],977 nM
same,koff,[4],0.0185 s⁻¹
same,kon,[4],18900 M⁻¹ s⁻¹
same,Kd,[5],55.3 nM
same,koff,[5],0.000443 s⁻¹
same,kon,[5],8210 M⁻¹ s⁻¹
same,Kd,[6],580 nM
same,koff,[6],0.00378 s⁻¹
same,kon,[6],6600 M⁻¹ s⁻¹
same,binding result,[7],no binding (tested: up to 1 µM)
same,Kd,[8],28.6 nM
same,koff,[8],0.00027 s⁻¹
same,kon,[8],9440 M⁻¹ s⁻¹
same,Kd,[9],359 nM
same,koff,[9],0.00272 s⁻¹
same,kon,[9],7570 M⁻¹ s⁻¹

# Source: patent publication US20120094909A1 (Bristol-Myers Squibb, published 2012)
